Changes are numbered by the printed parent chain.
Experiments:
[1] = molecular target: the molecule itself; experiment: SEC; gel filtration of purified SUMO-Mms6 on Superdex S200 10/300 in 20 mM Tris pH 7.4; molecular weights extrapolated from Gel Filtration Marker Kit standards
[2] = molecular target: the molecule itself; experiment: SDS-PAGE; purified proteins on Bio-Rad AnyKd gel, InstantBlue staining; apparent monomer and dimer bands

B1: SUMO-Mms6 (natural protein, Magnetospirillum magneticum AMB-1)
chain: GGTIWTGKGLGLGLGLGLGAWGPIILGVVGAGAVYAYMKSRDIESAQSDEEVELRDALA
notes: Mms6, Magnetospirillum magneticum AMB-1, mature form (59 residues), the C-terminal stretch of the printed SUMO-Mms6 construct; numbers count on: the mature protein (truncated form isolated by Arakaki et al.); No cleavage of the tags is described; also called wildtype SUMO-Mms6; Mms6 (His6-SUMO fusion); source: E. coli BL21 (DE3) Star, purified (nickel column, dialysis against EDTA and …)
In the case of B1, the “stoichiometry N” value [1] is reported as 2.

B2: SUMO-Mms6 E44A (natural protein, Magnetospirillum magneticum AMB-1)
chain: B1 chain with E44A
notes: Mms6, Magnetospirillum magneticum AMB-1, mature form; numbers count on: the mature protein; Same tags and construct as m1; source: E. coli BL21 (DE3) Star, purified (nickel column, dialysis); not shown: His6, N-terminal, kept; SUMO (yeast), N-terminal, kept
B2: binds [2].

B3: SUMO-Mms6 EE50AA (natural protein, Magnetospirillum magneticum AMB-1)
chain: B1 chain with E50A, E51A
notes: Mms6, Magnetospirillum magneticum AMB-1, mature form; numbers count on: the mature protein; Same tags and construct as m1; also called double mutant; source: E. coli BL21 (DE3) Star, purified (nickel column, dialysis); not shown: His6, N-terminal, kept; SUMO (yeast), N-terminal, kept
B3: binds [2].

B4: SUMO-Mms6 E51A (natural protein, Magnetospirillum magneticum AMB-1)
chain: B1 chain with E51A
notes: as for B2
B4: binds [2].

B5: SUMO-Mms6 R55A (natural protein, Magnetospirillum magneticum AMB-1)
chain: B1 chain with R55A
notes: as for B2
B5: binds [2].

B6: SUMO-Mms6 D49A (natural protein, Magnetospirillum magneticum AMB-1)
chain: B1 chain with D49A
notes: as for B2
B6: binds [2].

B7: SUMO-Mms6 E53A (natural protein, Magnetospirillum magneticum AMB-1)
chain: B1 chain with E53A
notes: as for B2
B7: binds [2].

B8: SUMO-Mms6 D42A (natural protein, Magnetospirillum magneticum AMB-1)
chain: B1 chain with D42A
notes: Mms6, Magnetospirillum magneticum AMB-1, mature form; numbers count on: the mature protein; Same tags and construct as m1 (pET28SUMOmms6, site directed mutagenesis); source: E. coli BL21 (DE3) Star, purified (nickel column, dialysis); not shown: His6, N-terminal, kept; SUMO (yeast), N-terminal, kept
B8: binds [2].

B9: SUMO-Mms6 E50A (natural protein, Magnetospirillum magneticum AMB-1)
chain: B1 chain with E50A
notes: as for B2
B9: binds [2].

Reference: article PMC7041794, “Investigating the ferric ion binding site of magnetite biomineralisation protein Mms6” (PLoS ONE, 2020)
